Laboratory results reported in paper doi:10.1101/2023.10.05.561050 (bioRxiv, 2023).

Tests used:
Test in all cases: PIE-FCCS
[1] = molecular target: Myr-GCN4-EGFRk-FP (multimer control)
[2] = molecular target: Myr-GCN4-FP (dimer control)
PIE-FCCS = molecular target: the molecule itself

In the case of Myr-GCN4-EGFRk-FP (multimer control), the fc (median cross-correlation value) [1] is reported as 0.23.

For Myr-GCN4-FP (dimer control), the fc (median cross-correlation value) [2] was 0.14.

B1: Myr-ICD-ΔS (EphA2 intracellular domain without the SAM domain, AA 559-882, with a membrane localization sequence) (domain or fragment)
chain: HRRRKNQRARQSPEDVYFSKSEQLKPLKTYVDPHTYEDPNQAVLKFTTEIHPSCVTRQKVIGAGEFGEVYKGMLKTSSGKKEVPVAIKTLKAGYTEKQRVDFLGEAGIMGQFSHHNIIRLEGVISKYKPMMIITEYMENGALDKFLREKDGEFSVLQLVGMLRGIAAGMKYLANMNYVHRDLAARNILVNSNLVCKVSDFGLSRVLEDDPEATYTTSGGKIPIRWTAPEAISYRKFTSASDVWSFGIVMWEVMTYGERPYWELSNHEVMKAINDGFRLPTPMDCPSAIYQLMMQCWQQERARRPKFADIVSILDKLIRAPDSLK
modifications: N-terminal myristoylation of the c-Src-derived peptide
In the case of B1, the “stoichiometry N” value (PIE-FCCS) is reported as 2.
